# T1: WalK-LgBIT (native WalK) (S. aureus, UniProt Q2FKN7 1-608)
# T1 construct: WalK, transmembrane sensor histidine kinase of the WalKR two-component system, S. aureus NRS384 (USA300); open reading frame with the stop codon removed; also called WalK Wt; source: S. aureus NRS384, from plasmid pLgBIT, in living cells
# T1 sequence (looked up): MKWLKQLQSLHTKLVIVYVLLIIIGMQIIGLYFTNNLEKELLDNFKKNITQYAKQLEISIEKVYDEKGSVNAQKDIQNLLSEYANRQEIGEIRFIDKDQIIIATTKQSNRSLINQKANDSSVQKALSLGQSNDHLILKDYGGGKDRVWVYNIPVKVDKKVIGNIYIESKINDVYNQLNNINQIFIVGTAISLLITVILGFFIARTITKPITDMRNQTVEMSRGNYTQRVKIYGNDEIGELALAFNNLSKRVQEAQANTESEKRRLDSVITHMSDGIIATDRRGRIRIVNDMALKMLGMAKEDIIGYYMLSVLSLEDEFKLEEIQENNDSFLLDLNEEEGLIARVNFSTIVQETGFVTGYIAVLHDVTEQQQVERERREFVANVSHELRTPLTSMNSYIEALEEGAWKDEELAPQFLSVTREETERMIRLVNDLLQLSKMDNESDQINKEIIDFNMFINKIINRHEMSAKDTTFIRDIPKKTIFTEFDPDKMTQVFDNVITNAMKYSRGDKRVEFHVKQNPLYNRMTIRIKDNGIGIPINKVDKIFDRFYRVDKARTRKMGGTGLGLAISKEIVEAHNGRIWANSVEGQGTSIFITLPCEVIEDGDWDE
# B1: WalR_(T101A)-SmBIT (natural protein)
# chain: MARKVVVVDDEKPIADILEFNLKKEGYDVYCAYDGNDAVDLIYEEEPDIVLLDIMLPGRDGMEVCREVRKKYEMPIIMLTAKDSEIDKVLGLELGADDYVAKPFSTRELIARVKANLRRHYSQPAQDTGNVTNEITIKDIVIYPDAYSIKKRGEDIELTHREFELFHYLSKHMGQVMTREHLLQTVWGYDYFGDVRTVDVTIRRLREKIEDDPSHPEYIVTRRGVGYFLQQHE
# notes: WalR, response regulator, S. aureus NRS384 (USA300); open reading frame with the stop codon removed; also called "down" mutant; source: S. aureus NRS384, from plasmid pSmBIT, in living cells
# Molecular target: T1, WalK-LgBIT (native WalK)
# Assay: split reporter (BiFC, NanoBiT); WalR-SmBIT (pSmBIT) and WalK-LgBIT (pLgBIT) alleles together in living S. aureus NRS384; LB with chloramphenicol, kanamycin and Nano-Glo substrate 1:5,000, 37°C, 96-well plate; OD600nm and light emission (RLU) read every 10 min over 8 h; lag and exponential phase
# Conditions: partners not purified
binder,measurement,value
B1,fold change of the maximal level of interaction against native WalK/WalR,1.5 fold

# — article PMC10746227, “The two-component system WalKR provides an essential link between cell wall homeostasis and DNA replication in Staphylococcus aureus” (mBio, 2023)
